Reference: patent US20140303084

Assays:
compound 1 = target: T1, compound 1 (not fully specified)
T1 chain: KLTCLASYCWLF

compound 5 = target: T2, compound 5
T2 chain: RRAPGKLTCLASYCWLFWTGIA

B1: mouse FIXa (protein)
chain: YNSGKLEEFVRGNLERECIEERCSFEEAREVFENTEKTTEFWKQYVDGDQCESNPCLNGGICKDDISSYECWCQVGFEGRNCELDATCNIKNGRCKQFCKNSPDNKVICSCTEGYQLAEDQKSCEPTVPFPCGRASISYSSKKITRAETVFSNMDYENSTEAVFIQDDITDGAILNNVTESSESLNDFTRVVGGENAKPGQIPWQVILNGEIEAFCGGAIINEKWIVTAAHCLKPGDKIEVVAGEYNIDKKEDTEQRRNVIRTIPHHQYNATINKYSHDIALLELDKPLILNSYVTPICVANREYTNIFLKFGSGYVSGWGKVFNKGRQASILQYLRVPLVDRATCLRSTTFTIYNNMFCAGYREGGKDSCEGDSGGPHVTEVEGTSFLTGIISWGEECAMKGKYGIYTKVSRYVNWIKEKTKLT
For B1, the “Vmax, FXa generation assay” value (compound 1) was “the Vmax is greatly reduced with mFIXa compared to hFIXa”.

B2: human Factor VIIa (protein)
chain: ANAFLEELRPGSLERECKEEQCSFEEAREIFKDAERTKLFWISYSDGDQCASSPCQNGGSCKDQLQSYICFCLPAFEGRNCETHKDDQLICVNENGGCEQYCSDHTGTKRSCRCHEGYSLLADGVSCTPTVEYPCGKIPILEKRNASKPQGRIVGGKVCPKGECPWQVLLLVNGAQLCGGTLINTIWVVSAAHCFDKIKNWRNLIAVLGEHDLSEHDGDEQSRRVAQVIIPSTYVPGTTNHDIALLRLHQPVVLTDHVVPLCLPERTFSERTLAFVRFSLVSGWGQLLDRGATALELMVLNVPRLMTQDCLQQSRKVGDSPNITEYMFCAGYSDGSKDSCKGDSGGPHATHYRGTWYLTGIVSWGQGCATVGHFGVYTRVSQYIEWLQKLMRSEPRPGVLLRAPFP
B2 was tested, and the Δ kM of FVIIa, FXa generation assay (compound 5) was 0.3 and the Δ kcat of FVIIa, FXa generation assay (compound 5) was 2420 fold.
